This note sets out measurements from the supplement of paper PMC6379048.

Usually Kd stands for the concentration at which binding is half-saturated. A low value points to a tighter complex.

What all share (experiment): Kd (EC50 corrected by depletion factor)
One data set has as its target T1, PARP12 (UniProt Q9H0J9).
T1 sequence: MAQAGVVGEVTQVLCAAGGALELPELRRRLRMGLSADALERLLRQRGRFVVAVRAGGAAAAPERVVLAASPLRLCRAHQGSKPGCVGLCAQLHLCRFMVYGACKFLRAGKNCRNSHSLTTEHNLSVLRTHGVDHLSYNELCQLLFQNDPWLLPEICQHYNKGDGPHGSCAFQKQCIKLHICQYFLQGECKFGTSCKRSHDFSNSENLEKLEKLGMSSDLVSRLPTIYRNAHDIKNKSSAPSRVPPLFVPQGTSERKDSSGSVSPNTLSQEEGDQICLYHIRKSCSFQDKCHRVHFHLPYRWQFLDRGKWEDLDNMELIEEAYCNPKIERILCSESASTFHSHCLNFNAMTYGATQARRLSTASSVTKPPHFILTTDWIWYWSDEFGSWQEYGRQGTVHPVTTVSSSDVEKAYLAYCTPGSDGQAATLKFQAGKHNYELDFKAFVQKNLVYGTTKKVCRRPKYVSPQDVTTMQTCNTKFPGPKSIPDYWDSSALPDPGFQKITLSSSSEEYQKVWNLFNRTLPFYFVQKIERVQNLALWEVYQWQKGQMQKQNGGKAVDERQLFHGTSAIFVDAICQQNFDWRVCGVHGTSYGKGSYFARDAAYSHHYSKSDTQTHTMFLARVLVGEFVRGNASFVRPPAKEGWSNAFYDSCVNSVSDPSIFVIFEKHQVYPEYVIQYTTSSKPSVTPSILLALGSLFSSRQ
The gist of the method: (§1)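 To obtain EC50, data were fitted with a four-parameter log-logistic model; Kd was then EC50 multiplied by a protein-dependent depletion factor. Beforehand, free RNA oligos (0 nM to 30 μM) were pre-incubated with HEK293-FT lysate (2.5 mg protein/well) for 1 h at 4°C. The lysate then spent 30 min at 4°C with the same 5′-amino-C6 oligos coupled to NHS-Sepharose beads, and bound proteins were quantified by label-free LC-MS/MS, normalised to the control.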

Another data set has as its target P4HA2 (UniProt O15460). The gist of the method: as §1
The next data set has as its target MRPL17 (UniProt Q9NRX2). The gist of the method: as §1
In a further data set the target is RPS10 (UniProt P46783). The gist of the method: as §1
For another data set, the target named is IGF2BP1 (UniProt Q9NZI8). In a few lines:
as §1

In a further data set the target is GNB2L1 (UniProt P63244). The gist of the method: as §1
For the next data set, the target named is T2, CDKN2AIP (UniProt Q9NXV6).
T2 sequence: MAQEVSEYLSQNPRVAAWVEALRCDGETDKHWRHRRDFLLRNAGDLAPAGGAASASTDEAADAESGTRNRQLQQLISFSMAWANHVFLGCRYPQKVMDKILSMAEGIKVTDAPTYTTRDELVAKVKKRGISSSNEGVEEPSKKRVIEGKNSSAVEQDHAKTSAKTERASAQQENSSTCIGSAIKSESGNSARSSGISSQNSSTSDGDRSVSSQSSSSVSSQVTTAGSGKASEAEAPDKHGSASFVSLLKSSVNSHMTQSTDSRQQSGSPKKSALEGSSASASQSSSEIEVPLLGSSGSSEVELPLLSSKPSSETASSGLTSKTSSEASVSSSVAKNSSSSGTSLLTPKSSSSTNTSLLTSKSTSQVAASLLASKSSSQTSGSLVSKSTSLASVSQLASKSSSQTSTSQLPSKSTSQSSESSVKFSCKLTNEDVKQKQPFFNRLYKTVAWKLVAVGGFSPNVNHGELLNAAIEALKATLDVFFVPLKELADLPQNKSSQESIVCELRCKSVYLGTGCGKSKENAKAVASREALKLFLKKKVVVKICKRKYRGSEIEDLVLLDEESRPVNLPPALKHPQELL
In a few lines:
as §1

Another data set addresses T3, ZFP36L1 (UniProt Q07352).
T3 sequence: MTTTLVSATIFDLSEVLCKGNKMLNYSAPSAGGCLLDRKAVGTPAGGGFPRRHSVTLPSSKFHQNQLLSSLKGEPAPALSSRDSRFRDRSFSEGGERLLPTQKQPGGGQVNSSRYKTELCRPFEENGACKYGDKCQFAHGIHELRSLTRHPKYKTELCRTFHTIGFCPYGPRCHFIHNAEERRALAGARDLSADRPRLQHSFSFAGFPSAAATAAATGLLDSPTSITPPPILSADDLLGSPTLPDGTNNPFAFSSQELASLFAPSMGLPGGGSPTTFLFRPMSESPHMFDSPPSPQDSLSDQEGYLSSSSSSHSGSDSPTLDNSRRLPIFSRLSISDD
The gist of the method: as §1

In the next data set the target is MRPS7 (UniProt Q9Y2R9). The gist of the method:
as §1

In a further data set the target is MRPS26 (UniProt Q9BYN8). In a few lines:
as §1

P4HA2, sequence (O15460 whole entry): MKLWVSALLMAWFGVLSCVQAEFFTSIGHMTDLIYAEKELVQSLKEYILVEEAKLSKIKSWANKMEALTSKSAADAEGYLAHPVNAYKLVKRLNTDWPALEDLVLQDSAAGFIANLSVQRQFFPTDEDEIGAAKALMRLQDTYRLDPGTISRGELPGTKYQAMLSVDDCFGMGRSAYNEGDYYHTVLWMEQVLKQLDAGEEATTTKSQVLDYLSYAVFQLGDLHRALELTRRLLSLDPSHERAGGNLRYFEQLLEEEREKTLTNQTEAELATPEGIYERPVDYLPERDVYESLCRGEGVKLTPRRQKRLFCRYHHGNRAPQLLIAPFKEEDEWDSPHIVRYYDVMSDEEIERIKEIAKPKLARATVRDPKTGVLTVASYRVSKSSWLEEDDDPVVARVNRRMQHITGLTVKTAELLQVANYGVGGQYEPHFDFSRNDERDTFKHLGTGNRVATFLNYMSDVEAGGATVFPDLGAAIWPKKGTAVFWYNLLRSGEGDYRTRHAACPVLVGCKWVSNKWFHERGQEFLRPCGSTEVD
IGF2BP1, sequence (Q9NZI8 whole entry): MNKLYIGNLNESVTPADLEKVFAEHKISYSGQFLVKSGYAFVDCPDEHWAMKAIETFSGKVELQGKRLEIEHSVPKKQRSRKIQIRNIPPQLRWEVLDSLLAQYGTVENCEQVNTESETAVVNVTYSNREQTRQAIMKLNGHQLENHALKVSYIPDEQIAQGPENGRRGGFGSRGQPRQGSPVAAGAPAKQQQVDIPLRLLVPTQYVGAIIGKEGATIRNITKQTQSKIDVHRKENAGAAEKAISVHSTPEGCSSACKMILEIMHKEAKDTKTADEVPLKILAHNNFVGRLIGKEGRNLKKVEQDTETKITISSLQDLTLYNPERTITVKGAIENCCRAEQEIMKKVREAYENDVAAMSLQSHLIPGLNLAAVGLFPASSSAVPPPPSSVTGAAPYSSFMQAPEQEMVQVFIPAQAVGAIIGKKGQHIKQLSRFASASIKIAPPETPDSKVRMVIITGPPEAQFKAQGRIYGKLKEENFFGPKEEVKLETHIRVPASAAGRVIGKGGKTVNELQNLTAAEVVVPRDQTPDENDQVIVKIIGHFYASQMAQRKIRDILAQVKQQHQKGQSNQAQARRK

Regarding AAUAAA, the Kd with PARP12 is 5400 nM; in the data set with P4HA2, 37.5 nM.

Take CUGUCCU: the Kd with MRPL17 came out at 20.4 nM; with RPS10, 116 nM; in the data set with IGF2BP1, 1240 nM; with GNB2L1, 808 nM.

Turning to UAUUUAU, the Kd in the data set with CDKN2AIP turned out to be 368 nM; with ZFP36L1 it was 24.4 nM; with MRPS7, 29.4 nM; with MRPS26, 15.9 nM.
